Test: soluble on expression in E. coli; label from the status in PepcDB or PDB records

Soluble on expression in E. coli, not soluble:
MNKFIQSLPKVELHLHIEGTLEPELMLELAQRNSINIPFNSVEEIRDAYNFHNLQSFLDIYFQGADVLVHEQDFFDLTWAYLLRCQEDNVLHTEIFFDPQAHTERGILFDTVVNGIDRALNKGVSELGITSKLIMCFLRHLDEESAFKTLTQAQAHKDKIIGVGLDSTEIGNPANKFERVFKQAIEQGFLTVAHAGEEGPADNISEALSLLKITRIDHGVRCSEDASLVKQLVSERIPLTVCPLSNIKLKVFDRMEQHNIVTLLRQGVCVTINSDDPAYFGGYMTDNFVAVNNAHPMNKAEIAQFTFNAIEASFVSPSEQERLRQVTQKYIALHQE
MADEKMSEFTDEELNKKVKELQDAVIEKVRTEAETPAVSGGYPGSNAYRPELDRVPSREEILERISWLREMIDDILKPKPSDFDPLIEKTEKLRDLFGVESHQPGGDSRLRNIDTSKNAIQQWDGAFADNLAEKYFAPLEDVRGNHGRMAKVLNENAVAMKATYVHARGQAKRTLDDGVKAIEAIVDSKGSDLKILLAILTGATSLITPLLPSKTAVQLGSAGLSTLLSNLGEAGPEEQEEVPLGADTPEGVMDNVKEALEKVKTKRGEDEDSIIKAVNDSEKAIYERMTKSTHQTEDDPIYAPRPTIMDSSKPSEGLTKD
MGSDKIHHHHHHMENDFPLKGKTVLVTRNKAQAASFQQKVEALGGKAVLTSLITFRRALPNDVAEQVREDLAAPGWLVFTSVNGADFFFSYLKENQLILPAHKKIAAVGEKTARRLKMHNVSVDVMPQEYIAEQLADALKQHAEPGETITVMKGNLSRDVIKQELVPLGFEVKEWVLYETIPDEEGIEALKDAAGQYSFDYVTFTSSSTVHTFMHVLGEELKKWKANGTACISIGPLTNDALLTYGITSHTPDTFTIDGMLELMCSMSREEERI
GPGSMKERYDPLPPQLETYLRLIPPTSGAASGKADGDKKTGPRRSDDDPMSFYCTSFLMSREWDVQKAFAMMQEVVAYRAVNHLDEQSHFPPAFSVRGWSTEDVCRALERSPRKVGERIDRVCAGVAQGLICGIHYWDKNGRPVFYMVIDSFDEAELMRQLKQMASVGKSHVDVMWEYMVHVLSVTESLVLYQLIQRGAPLSGRPLTSKTTDEEAPAWDLSEGAVTMVYDMKRLTLKMLWKPIIDMFCDNSKTFFNYYPDRIHRIVCVNSPSLVRYAFLLVRGVLPAAFQRKISFVSPHDTLATLETMIDRKYIPHFLGGDCRCEAHDGECLSGYDPRQTGRTRRTVARTDASSEGNDEAPTVYVKLAAGHECTRVFPVNASEVVVWEFAVEGGGHDIIFTTFFVPQSAASGMQWTQVELSKLSSYMVTSEALAKGSDAFAVAEDGVVVLKWHNRRHWFASKRLQLRAYKEGAPSTLHGQASHPE
MSDARLAELAAAVGLQLDWQDANGRPQRVDPEVQRGLLEALGYPAQSPQQIEQSLAALARLREDSANLGLLVGECGQPLEQALGPAGTPGELVYEDGTRIALRLDAEGRLPAQARSGYAQLSLEQREWAVAMAPPSCPSLASLAPGRSRRWGLAAQVYALRRPGDGGLGDSAALEDLLRSAARHGADALAISPLHALAEANGHAYSPYSPSSRLFFNVLHAAPATILGAAAVEQAIRRAGLAAEMARLESLELIDWTAAADLRMRLLRQLHRDFTERASPLRHDLAEFRREAGEALLHHCRFETLQAHLGAGPDWRRWPEPLRRPGEPAVAAFCADHAEEVDFRAFGQWLTQRCLQHAQRQAREAGMAIGLVADLAVGADGGGSQAWSRQEELLAEVNVGAPPDILNQSGQDWGVSAFNPEGLRRHGYRAFREMLRANLAWPGGLRIDHVMGLQRLWLIPRGQPPHAGAYLRYPQRELLRLLALEASRASALVIGEDLGTVPEGLREELARRQVLGTRVLLFERRGERFVPPAQWPADAMATTSTHDLPSLSGWWRGRDIHWRGRAGHRSAEECAADLELRAEERRALAASLEPPVDPDPAAEVPLDACIGYVGATPAPLVLLPLEDALGSLEQPNLPGPGDAHPNWRRRWPENAAQMLGTPQVDRRLRLLERSRRDAEEA
MKKTGWGILGAVAAFTGYAYWSTKHLTVTDYEILSDKIPAEWDGATFVQLSDLHSASFGLYNNPLLSIVNELAPDAVFLTGDMIDGDESPFVTMAVVRKLAKEFPVFYVSGNHEGRSAFYEDFKADMEKHHVAVLENERYFLRKDGAAIMVAGVKDPRFVRDDWAEKELPKQVWEEEALKEALDEATANLSPDYFTILLAHRPEFWPLYQAYPVDLVLSGHAHGGQFRLPLTEGLFAPGQGFMPKWTAGLHSAGGKSLIVSRGLGNVTKLPRLFNDPEIIRITLKAKGDARENLEHHHHHH
MKSFILGPLGLLVAICCLYQPADAALAAMSIDLGSQFIKIGLVKPGVPMDIVLNKESRRKTPNVISFKNDERFFAEAAAAMSSSHPQSSYNFLLSMIARKEGDDAFVTFQKTFPFTAFEFDEVRKTVVFPYKEEKYNVETLLAMILWNAKKVTEAYADQTVKDVVITVPIFLNQAERRAIASAAEIAGLNLLQLLNDGSAAALNYGVFRRKEITEKPTHMLIYDMGAVKTTATIVQYVLESTRKDGKDKQPTLRTVGVGFDKTLGGLEITNRLRDHLEKVFRDTVKTSKDISTNARAIGKLHKEAERVKQVLSANKDTYAQVESLFEEQNFRAKVTREELEKMIEDLEPRIAAPILDAIGMAQISTNDIDLVVLMGAGTRVPKVKEILKTILKDKEISNFLNTDEAIAMGAVYQAAHLSKSFKVLPFNVHEKILYPVFVNFLTKTEEGTMKPIRKSLFGENYPVPNRVMHFSSYSDDFKIDIQDADKNPLSTVEISGVKDAIEKEVTDENSVLKGVKTTFSIDLSGIVSVEKASVVVEKVPTPEEKDKYEVDKKEFDEWEKEQEELKKKEKAEKKEKEEKKKTEGEEEKNEDAAGEEKTEEKTEEVEKPVVVKKTKPVEPKAKKINVALTIKETKTDNIDLNEEEVTAAKKVLGDFEQKEKEKHDREEAMNRLEGLLYDLAVRLEDGEEYAEYATEEEKKAILEEVAVLKLWFEDDVSLETKKEEFDEKRAKLEELTAKPNARKQERLDIPKVAEIIEDHFNRSMTFHAMALNLTQFEEGNKTFTDTELEVLTKLIESTTEWWNEKKDLFEKQAKNEDPVVKASEIAEKARDLEREVRYLVNKLKIASSKKSKESEKKKKTKKEKDTVKERKEEETTETTTEDQANEQQTPPPFENDNTKDDESASTEEPKKDTEHDASEL
MGSDKIHHHHHHMEINGHEIQFKDNAVFLEENKILILADVHVGMEEFIRRNGVLFPLNEKKELLKRLKNLIVEFKPEKLVFLGDFLHHFQKVPYKVYETIRELNSLLKNYEIIVIRGNHDIMLEYILKENTNFKILDYLLENKILMIHGDKKFDIDFNFDLLIMGHEHPVLEINKQRFPSYLEIVQNDFKILVAPAFSNIASGVKINELESNFMSPYLKKVKKEDIFPIIIGEEVLKFPDLSKIEKFL
MEIRYAKEEEIESIKDIWSYCFNDTESFMKYYFNDKYKSENTVVALDEGKIISSLQLNQYKLLLNSKVYNTSYVVGVSTLPEGRGAGYMNKVMKFTLNELYKKGQLVSILMPIDYRLYRRFGYEHCYDQIEYTINTDDLKNFKSSGKMIKSNLSQIDDLIQIDRTFLNEVNGNVLKDEHYYENLFKEIQSEDGFLYIHEGNEKDGYIVYFLQEDKMFVRELFYKNIDALKSMLKFIYNHNTQCKIVTISTPTIDKIRFILDNPKDSDIKIKPFMMGRVINVKKFIEDIDIENDINSSFNLLIEDKFIDENNGLFKISIQNKKVSVEQLDKKGAEKPQEDFDIKLDINTLTQLSFSYIDVNEAIFLNDIKDVSEETLETLNCIFSKKNNYINEYI

Soluble on expression in E. coli, soluble:
MAQGEKITVSNGVLNVPNNPIIPFIEGDGTGPDIWNAASKVLEAAVEKAYKGEKKITWKEVYAGEKAYNKTGEWLPAETLDVIREYFIAIKGPLTTPVGGGIRSLNVALRQELDLFVCLRPVRYFTGVPSPVKRPEDTDMVIFRENTEDIYAGIEYAKGSEEVQKLISFLQNELNVNKIRFPETSGIGIKPVSEEGTSRLVRAAIDYAIEHGRKSVTLVHKGNIMKFTEGAFKNWGYELAEKEYGDKVFTWAQYDRIAEEQGKDAANKAQSEAEAAGKIIIKDSIADIFLQQILTRPNEFDVVATMNLNGDYISDALAAQVGGIGIAPGANINYETGHAIFEATHGTAPKYAGLDKVNPSSVILSGVLLLEHLGWNEAADLVIKSMEKTIASKVVTYDFARLMDGATEVKCSEFGEELIKNMD
MSLSAIPPDAIDDESRDTLTGLAGIASASDWLDRNGAKGFVHAMLLGLHRFRSVNLAYGQSAGDIALVELAQRIRIFADEEIGGDTLVARVGGGDFLVASAGKVSRERWQWLAEALARRVSRVLPLRGEELQLAPRIALLRGQPGEGGPALLDRLDQALTTLQQQPARRLQWADGSHLARGRSAARLEADMIGAMARDEIGIVFQPQYAVAGGDIVGVEALARWDHPQLGRIGAETLFALAERGDHVAQVSRHIAGRAMWQAVEWKPVIPLSLNITAEDLGDDRLVEDCRLLLAQTGYPPSSLTVEVTEHALIADFERSAAALEQLARLGVRIALDDFGAGYANFRTLKALPVNTLKLDASLVRDIDRDPRDRAILRAIVAMARALGQKVVVEGIERESQLQVLAAEGCDAFQGFLRSGPIPADQIAALSREGHHHHHH
QLIFDDCVFAFSGPVHEDAYDRSALETVVQDHGGLVLDTGLRPLFNDPFKSKQKKLRHLKPQKRSKSWNQAFVVSDTFSRKVKYLEALAFNIPCVHPQFIKQCLKMNRVVDFSPYLLASGYSHRLDCTLSQRIEPFDTTDSLYDRLLARKGPLFGKKILFIIPEAKSWQKKIENTEQGQKALAHVYHALALGADVEIRPNVAHLECDLILTMDGNIVDETNCPVVDPEWIVECLISQSDIST
GPGSMQLQSRAPEHFSTPFFSSPSSSVAYESGCSLDALERLVHFTGAGADACLYAVHPPQAKGTDSAALTPTTEGLRYWLNPSVRARPTTATCEITNLGPPFFASTSTAVLRISATPLFVDGRCFPTRCVVSLATSAQRLDGVSLRPVVVTEWNLTASGAAGVCTTTVPLRTLYHLAVLISSSAPATGVEEVRLYLHLRFMGCSDGSDTHRIAAVRLRYEQLGTAAEVLPQLLQRRQRAAAHVMLPSPYDVKYHSEGRFTRAGAPLEEVEVGVIAGSSTATSSGRKDMGDDAGKSLFVGAKERRTHTSPPSSTRMRSDGCETRGDRRRGRAPRGC
SSSSSSPAIEPDTPDLICQLDNVQGMVDALTCVRWKRHQDALVELSEHGIVLIVEESGCLQAKVYLQRELFTKYEYGAQGRPRFGISLGLLVDCLNTFSSPGHSNTIEIKYPGPDMELLLKSVDTLNSCIYSEIRTRIPETVTWDYNFEQAGIAPLTFTVKSAALKEAIDDLEWPGSSVQISLQKEPPCVIFRGEGHGDLQIDFMYYANTDLLLAFHCDTEVSYGYKYKFLKATTANIPGNVVRENRRSKLTIGRGGMLKVQHLVSVSKALAPQVESAGYQPPSRIAYIEFFVKPEEPAD
MLLYKDVISGDELVSDAYDLKEVDDIVYEADCQMVTVKQGGDVDIGANPSAEDAEENAEEGTETVNNLVYSFRLSPTSFDKKSYMSYIKGYMKAIKARLQESNPERVPVFEKNAIGFVKKILANFKDYDFYIGESMDPDAMVVLMNYREDGITPYMIFFKDGLVSEKF
MSLGLSKTIWTNPAEYLRALSPEAPVLFFSPSTLQATARRFIDGFPGMVTYAVKSNPEEVVIENLAAAGIRGYDVASPHEIRMIRRIAPDAALHYNNPVRSRSEIGVGVEMGVKSWSVDSASELAKLIELVPAEGCEIAVRFKLAVSGAAYNFGAKFGATVELAVELLRRVAEAGFIPSMTFHPGTQCTDPAAWETYIRTAAEIARDAGVTIARLNVGGGFPSHRLNGVEPELEAIFHLIDRVTDEAFGADRPLLVCEPGRGICADAFTLAARIKAVRDDAHVFLNDGVYGSLTELPMIGVIDRVAVLTPEGRRRDGETRDRIIFGPTCDSVDRLPGELPLAADVEEGDFLVFQGMGAYSAATNTRFNGFGELSMATVLSLKEGHHHHHH

From the DeepSol protein solubility set
